According to patent US20050048527, “Endonuclease-substrate complexes” (Third Wave Technologies, Inc., published 2005):
Substitutions are numbered along the chain they refer to.

T1: Pfu4M FEN1 (Pyrococcus furiosus, UniProt O93634 SEQ:1-340)
T1 chain: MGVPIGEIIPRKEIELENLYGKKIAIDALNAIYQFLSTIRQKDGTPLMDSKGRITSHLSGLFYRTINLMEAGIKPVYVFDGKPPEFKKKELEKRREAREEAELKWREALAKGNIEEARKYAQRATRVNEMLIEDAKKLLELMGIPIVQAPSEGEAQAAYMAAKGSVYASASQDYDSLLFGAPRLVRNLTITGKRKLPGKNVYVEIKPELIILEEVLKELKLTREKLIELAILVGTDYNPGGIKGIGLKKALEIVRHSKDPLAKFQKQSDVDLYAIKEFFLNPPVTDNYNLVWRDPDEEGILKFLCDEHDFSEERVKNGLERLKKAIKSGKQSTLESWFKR

T2: Pfu1M FEN1 (Pyrococcus furiosus, UniProt O93634 SEQ:1-340)
T2 chain: T1 chain with L103E, A110E, N113E

T3: Pho3M FEN1 (Pyrococcus horikoshii, UniProt O50123 SEQ:1-343)
T3 chain: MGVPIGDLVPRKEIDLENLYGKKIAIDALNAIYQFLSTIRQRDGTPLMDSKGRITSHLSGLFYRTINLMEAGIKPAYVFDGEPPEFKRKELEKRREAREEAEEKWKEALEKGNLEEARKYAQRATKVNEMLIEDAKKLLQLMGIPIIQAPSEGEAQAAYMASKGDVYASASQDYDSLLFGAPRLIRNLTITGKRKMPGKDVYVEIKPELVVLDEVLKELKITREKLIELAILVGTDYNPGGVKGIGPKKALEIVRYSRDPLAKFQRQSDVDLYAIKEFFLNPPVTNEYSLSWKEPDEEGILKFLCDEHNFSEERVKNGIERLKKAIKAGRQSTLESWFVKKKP

T4: Pfu3M FEN1 (Pyrococcus furiosus, UniProt O93634 SEQ:1-340)
T4 chain: T1 chain with N113E

T5: Pfu2M FEN1 (Pyrococcus furiosus, UniProt O93634 SEQ:1-340)
T5 chain: T1 chain with A110E, N113E

T6: Pho2M FEN1 (Pyrococcus horikoshii, UniProt O50123 SEQ:1-343)
T6 chain: T3 chain with E110A

B1: X-structure 203-81-2/203-91-2 (structured_DNA)
DNA 1: TTTTCAACTGCTTAGAGAATCTAAGCAGTTGGTGCGCCTCGTTAA
DNA 2: AACGAGGCGCACATT
modifications: 3'-NH2 on first strand
B2: INVADER substrate 594-12-1/203-91-1 (structured_DNA)
DNA 1: TTTTTCACGGCAGTTGGTGCGCCTCGGAACGAGGCGCACA
DNA 2: TTTTCAACTGCCGTGA

Columns and labels:
Assay in all cases: cleavage_in_vitro; rate vs Pfu FEN1
Pfu4M FEN1 = target: T1, Pfu4M FEN1
Method: (§1) For the evaluation of chimeric enzymes, standard tests were performed to measure the performance and specificity of the enzymes. […] 10 μl reactions are run at 59 C for between 5 to 60 minutes depending on the enzyme. Reactions are stopped by the addition of 10 μl of 95% formamide, 0.02% methyl violet. 1 μl of the mixture is run on a denaturing 20% acrylamide gel and electrophoresed for 15 minutes or until good separation is achieved between cleaved and uncleaved probe. The gels are scanned using an FMBIO fluorescent gel scanner and the bands are quantified with FMBIOAnalysis software. Cleavage rates are determined from the percent probe cleaved. Cleavage rate for the INVADER substrate is defined as the number of probe molecules cleaved per target molecule per minute. In Table 5, below, the cleavage rates for the mutant enzymes are compared to the cleavage rates for unmodified Pfu FEN1 enzyme on the INVADER assay and X-structure substrates.
(§2) The X-structure substrate is used to determine the amount of background cleavage an enzyme will carry out in an INVADER reaction. It mimics the structure created by uncut primary probe and secondary FRET cassette in the INVADER squared reaction. […] 10 μl reactions are run at 59 C for between 3 to 30 minutes depending on the enzyme. Reactions are stopped by the addition of 10 μl of 95% formamide, 0.02% methyl violet. 1 μl of the mixture is run on a denaturing 20% acrylamide gel and electophoresed for 15 minutes or until good separation is achieved between cleaved and uncleaved probe. The gels are scanned using an FMBIO fluorescent gel scanner and the bands are quantified with FMBIOAnalysis software. Cleavage rates are determined from the percent probe cleaved.

Pfu1M FEN1 = target: T2, Pfu1M FEN1
Method: as §1, §2

Pho3M FEN1 = target: T3, Pho3M FEN1
Method: as §1, §2

Pfu3M FEN1 = target: T4, Pfu3M FEN1
Method: as §1, §2

Pfu2M FEN1 = target: T5, Pfu2M FEN1
Method: as §1, §2

Pho2M FEN1 = target: T6, Pho2M FEN1
Method: as §1, §2

[1] = label: 5'-biotin target, 5'-TET probe, hairpin target-INVADER with overlapping probe flap

Row | Binder | cleavage rate (Pfu4M FEN1; label: 5'-TET, X-structure) | cleavage rate (Pfu1M FEN1; label: 5'-TET, X-structure) | cleavage rate (Pho3M FEN1; label: 5'-TET, X-structure) | cleavage rate (Pfu3M FEN1; label: 5'-TET, X-structure) | cleavage rate (Pfu2M FEN1; label: 5'-TET, X-structure) | cleavage rate (Pho2M FEN1; label: 5'-TET, X-structure) | cleavage rate (Pfu4M FEN1; [1]) | cleavage rate (Pfu1M FEN1; [1]) | cleavage rate (Pho3M FEN1; [1]) | cleavage rate (Pfu3M FEN1; [1]) | cleavage rate (Pfu2M FEN1; [1]) | cleavage rate (Pho2M FEN1; [1])
1 | B1 | 62 | 0.85 | 6.6 | 4.9 | 3 | 31 | – | – | – | – | – | –
2 | B2 | – | – | – | – | – | – | 2.2 | 0.83 | 0.95 | 1.8 | 1.4 | 1.6
